Test results: EP4019546A1 (Numab Therapeutics AG, dated 2022)
Changes are numbered by the printed parent chain. Blank lines part the entries; values can stand above or below the binder they belong to.

Assays:
[1] = target: T1, human IL-31 (human, UniProt Q6EBC2 24-164); assay: cell-based or functional assay
T1 sequence (looked up): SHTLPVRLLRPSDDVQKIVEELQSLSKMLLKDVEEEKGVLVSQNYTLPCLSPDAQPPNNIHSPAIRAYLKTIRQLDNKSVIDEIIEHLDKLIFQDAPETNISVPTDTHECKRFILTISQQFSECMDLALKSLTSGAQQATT

[2] = target: T2, cynomolgus IL-31-His (cynomolgus monkey (Macaca fascicularis), UniProt G7PJ78 24-163); assay: SPR (Biacore T200), IL-31-His captured via anti-His antibody, scFv as analyte, 1:1 model
T2 construct: extracellular domain; also called cynomolgus monkey IL-31; cyno IL-31; not shown: His tag
T2 sequence: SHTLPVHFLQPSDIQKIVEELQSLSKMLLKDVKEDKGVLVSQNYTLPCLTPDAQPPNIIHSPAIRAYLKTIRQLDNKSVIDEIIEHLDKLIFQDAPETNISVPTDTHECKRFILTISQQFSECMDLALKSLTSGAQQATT

[3] = target: T1, human IL-31; assay: cell-based or functional assay; remark: listed apart in the source

B1: PRO1900 (scFv)
chain: AFQLTQSPSSLSASVGDRVTITCQASQSIDSWLAWYQQKPGKPPKLLIYQASKLASGVPSRFSGSGSGTDYTLTISSLQPEDFATYYCQTYYGGGHIGWGFGTGTKVTVLGGGGGSGGGGSGGGGSGGGGSQSQLVESGGGRVQPGGSLRLSCAASGFSFSANYWICWVRQAPGKGLEWIVCIYIGSRADTYYAPWAKGRFTISKDNSKNTVYLQMNSLRAEDTATYFCARFSSGIYDLDRFFLWGQGTQVTVSS
IC50, neutralization of hIL-31-induced signaling in IL-31RA/OSMR dimerization assay [1]: 8.21 ng/mL

B3: PRO1901 (scFv)
chain: B1 chain with R142S
Kd [2]: 1.14 nM
koff [2]: 0.000569 s⁻¹
kon [2]: 501000 M⁻¹ s⁻¹
IC50, neutralization of hIL-31-induced signaling in IL-31RA/OSMR dimerization assay [1]: 8.07 ng/mL

B4: PRO1902 (scFv)
chain: B1 chain with R142L, Y184S, T226V, Q250L
Kd [2]: 3.38 nM
koff [2]: 0.00247 s⁻¹
kon [2]: 731000 M⁻¹ s⁻¹
IC50, neutralization of hIL-31-induced signaling in IL-31RA/OSMR dimerization assay [1]: 371 ng/mL

Next, values leading:

Kd [2]: 1.39 nM
koff [2]: 0.000605 s⁻¹
kon [2]: 434000 M⁻¹ s⁻¹
IC50, neutralization of hIL-31-induced signaling in IL-31RA/OSMR dimerization assay [1]: 7.98 ng/mL
B2: PRO1903 (scFv)
chain: B1 chain with D30E, R142L, T226V, Q250L

Mean IC50, neutralization of human IL-31-induced signaling in IL-31RA/OSMR dimerization assay [3]: 0.198 nM
B5: PRO2198 (bispecific antibody)
chain 1: DIQMTQSPSSLSARVGDRVTITCQASEDIESYLAWYQQKPGKAPKLLIYRASTLAYGVPSRFSGSGSGRDFTLTISSLQPEDFATYYCLGSSYSTGSNIFGQGTKVEIKRTVAAPSVFIFPPSDEQLKSGTASVVCLLNNFYPREAKVQWKVDNALQSGNSQESVTEQDSKDSTYSLSSTLTLSKADYEKHKVYACEVTHQGLSSPVTKSFNRGEC
chain 2: not shown

Mean IC50, neutralization of human IL-31-induced signaling in IL-31RA/OSMR dimerization assay [3]: 0.142 nM
B6: PRO2199 (bispecific antibody)
chain 1: not shown
chain 2: B5 chain 1 with R14S, R69T
